From the supplement of paper PMC10724198
± gives the standard deviation of the averaged measurements.

System: Saccharomyces cerevisiae
Assay: protein stability index of tFT-peptide fusion (C-terminal peptide) (PSI (0-1 scale)); higher = more stable (slower turnover)
Details: genetic background: wild type; temperature: 30 C
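Further: PSI is a weighted mean of sequencing reads over stability bins, variants kept only with over 10 reads, mCherry proximal and sfGFP distal, peptide attached via GGGS linker.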

Row | Sequence | protein stability index
1 | PASLPPRAPPPL | 0.664 ± 0.019
2 | PASRIGGALPGG | 0.604 ± 0.03
3 | PASYLSSPLRPP | 0.667 ± 0.046
4 | PATKQFLLRGGR | 0.713 ± 0.0079
5 | PAVLLGPCARVP | 0.699 ± 0.04
6 | PAVPPGGDPTCP | 0.689 ± 0.0085
7 | PCARLAGSPLPT | 0.688 ± 0.021
8 | PCCYAGLHFFLG | 0.626 ± 0.068
9 | PCLLANFFFFPA | 0.653 ± 0.09
10 | PCLSLSFPPLPH | 0.736 ± 0.034
11 | PCLSRPSTPPSS | 0.674 ± 0.036
12 | PCPETPLLTRAA | 0.651 ± 0.0094
13 | PCPFSSPPPLTH | 0.763 ± 0.053
14 | PCSPRLPPFPSP | 0.683 ± 0.017
15 | PCTRIPPLDSPL | 0.718 ± 0.058
16 | PDPHTLTPTGHP | 0.71 ± 0.026
17 | PDSAGAALSLSS | 0.695 ± 0.027
18 | PDSIVACGPVGR | 0.702 ± 0.043
19 | PDTVRALMRGYK | 0.721 ± 0.016
20 | PEGPGAGRGEHN | 0.686 ± 0.044
21 | PEHGPWLFKGFF | 0.653 ± 0.025
22 | PEILSLDPLPSL | 0.662 ± 0.018
23 | PESGPVRLRTPP | 0.624 ± 0.029

Row | Sequence | protein stability index
24 | PESPNCRRTRAL | 0.661 ± 0.031
25 | PFAHPPRLPLFP | 0.742 ± 0.096
26 | PFAHSATFLSLG | 0.774 ± 0.052
27 | PFAPPPRPGPFP | 0.697 ± 0.085
28 | PFARPPPSPSPR | 0.707 ± 0.012
29 | PFCLPRPVRGVL | 0.728 ± 0.1
30 | PFCTRRSVRYRS | 0.719 ± 0.049
31 | PFCVALVDVGFW | 0.564 ± 0.029
32 | PFFFLPPSRPRP | 0.671 ± 0.023
33 | PFGPRLTQRSRP | 0.697 ± 0.039
34 | PFHSPLMPAHSH | 0.764 ± 0.049
35 | PFIPRFFSPCPL | 0.673 ± 0.018
36 | PFLGHCPPTPPP | 0.732 ± 0.044
37 | PFLLDSMRALGL | 0.737 ± 0.082
38 | PFLLFVSSTCPL | 0.605 ± 0.024
39 | PFPPHSPPSAPS | 0.697 ± 0.0093
40 | PFPQVPFPRLAY | 0.681 ± 0.066
41 | PFPSYLSPLGPS | 0.734 ± 0.037
42 | PFRFSPFPLPLP | 0.695 ± 0.023
43 | PFSIVRRSSFAP | 0.659 ± 0.082
44 | PFSTVDLATAYP | 0.712 ± 0.017
45 | PFVFRPGPVPRV | 0.643 ± 0.1
46 | PFWGKWVPSSYL | 0.7126 ± 0.0053

Row | Sequence | protein stability index
47 | PFYLPPSTPPLL | 0.739 ± 0.0076
48 | PGCLMGSRGFSN | 0.785 ± 0.18
49 | PGDFSWAQCLFP | 0.752 ± 0.048
50 | PGDSALVLVTPQ | 0.703 ± 0.069
51 | PGFEPHLKLCAA | 0.654 ± 0.042
52 | PGGRTVLCGTVT | 0.651 ± 0.0044
53 | PGGSVYKPLATA | 0.644 ± 0.071
54 | PGLAGGASQEGR | 0.58 ± 0.085
55 | PGLLPTPSSPVP | 0.821 ± 0.032
56 | PGLRRHPPPPPP | 0.739 ± 0.071
57 | PGMTILETTIMD | 0.691 ± 0.015
58 | PGPSVRSWHPMD | 0.69 ± 0.082
59 | PGRGRQGSGIGM | 0.671 ± 0.062
60 | PGRSRGGPPERR | 0.6386 ± 0.0035
61 | PGTEVSDTLEVL | 0.6894 ± 0.0045
62 | PGTRNATPRRQP | 0.707 ± 0.04
63 | PGVIFRLPSCFV | 0.652 ± 0.061
64 | PHAHTAPPPVPP | 0.601 ± 0.017
65 | PHAPTAGPFPLP | 0.783 ± 0.021
66 | PHILMSFGSPLS | 0.729 ± 0.018
67 | PHLLRRPPTQRH | 0.633 ± 0.049
68 | PHLSPPGLPTTP | 0.685 ± 0.055
69 | PHNSARSLPLHF | 0.717 ± 0.052

Row | Sequence | protein stability index
70 | PHPCPTPPPLAP | 0.644 ± 0.043
71 | PHPLPLPPPVAP | 0.711 ± 0.031
72 | PHPNHRGPKGAN | 0.686 ± 0.032
73 | PHPPCRPYPAGS | 0.701 ± 0.031
74 | PHPPPLTQTPHD | 0.704 ± 0.014
75 | PHPPPPPPALTP | 0.704 ± 0.037
76 | PHPSPSSPPLLP | 0.657 ± 0.043
77 | PHPVPPRLPFPS | 0.747 ± 0.038
78 | PHQPRDGSFHGT | 0.653 ± 0.011
79 | PHRLPPLPNPLH | 0.693 ± 0.082
80 | PHRSLHTPTLCS | 0.686 ± 0.16
81 | PHSLLPSSAPRN | 0.696 ± 0.024
82 | PHTHHLPPPNCP | 0.679 ± 0.04
83 | PHYLPHAPHGAL | 0.704 ± 0.037
84 | PIGAFLSFWGQW | 0.828 ± 0.087
85 | PIPPESLHPDHN | 0.83 ± 0.038
86 | PISCVLGFAFPS | 0.708 ± 0.1
87 | PISKLCLTSYEY | 0.697 ± 0.021
88 | PITLRRRSRPPT | 0.692 ± 0.052
89 | PKEQTHKKQHNI | 0.56 ± 0.039
90 | PKNPRSTNGQLS | 0.67 ± 0.055
91 | PKPDFPGRHLSR | 0.654 ± 0.093
92 | PKSFLRRLRGWA | 0.701 ± 0.07

Row | Sequence | protein stability index
93 | PLAHYRPLPPRL | 0.787 ± 0.063
94 | PLAMRVALFSPP | 0.651 ± 0.0089
95 | PLAPSPPLPAFC | 0.693 ± 0.02
96 | PLAPSTPPNLSN | 0.643 ± 0.073
97 | PLASPYRLCPVP | 0.624 ± 0.044
98 | PLCPPPLPTPPP | 0.5849 ± 0.0028
99 | PLCPPPPVASFV | 0.64 ± 0.013
100 | PLDLPPLPLPPP | 0.763 ± 0.15
101 | PLFRHAPPSTLH | 0.739 ± 0.014
102 | PLFSLRPSIPFS | 0.72 ± 0.033
103 | PLGCFQQDVYEK | 0.733 ± 0.089
104 | PLHLPPFRPSPR | 0.676 ± 0.12
105 | PLHPPLSGPLPP | 0.723 ± 0.021
106 | PLHPPSLPPSRS | 0.65 ± 0.059
107 | PLLAPVPLTLTP | 0.722 ± 0.022
108 | PLLGPFTPSSLL | 0.737 ± 0.0088
109 | PLLHSARSSPFR | 0.699 ± 0.049
110 | PLLLLFLSLFRR | 0.63 ± 0.023
111 | PLLPLRSPPPLV | 0.637 ± 0.046
112 | PLLPPLPVSPLP | 0.704 ± 0.038
113 | PLLPRLNIPREF | 0.658 ± 0.056
114 | PLLSCLFLLFFL | 0.526 ± 0.0065
115 | PLLSLGCFPFCL | 0.724 ± 0.082

Row | Sequence | protein stability index
116 | PLLVLPGPLLTP | 0.668 ± 0.097
117 | PLPFSPPFPPSS | 0.732 ± 0.055
118 | PLPFWPPPPRRP | 0.674 ± 0.066
119 | PLPIGLRHVKSE | 0.696 ± 0.018
120 | PLPIPPRRPNSP | 0.65 ± 0.091
121 | PLPLLPTNPSPP | 0.636 ± 0.0096
122 | PLPLPAPPPPSP | 0.663 ± 0.01
123 | PLPPFPPSPPFT | 0.684 ± 0.036
124 | PLPPLPPPPPPP | 0.639 ± 0.051
125 | PLPPPAIPRLCA | 0.636 ± 0.029
126 | PLPPPLLPRTRL | 0.694 ± 0.11
127 | PLPPPPLAPPPP | 0.687 ± 0.014
128 | PLPPPPPARLVP | 0.649 ± 0.048
129 | PLPPPPPPPHSP | 0.738 ± 0.05
130 | PLPPPPPPPPRL | 0.678 ± 0.0073
131 | PLPPPPPPPRSP | 0.718 ± 0.077
132 | PLPPPPPPPSTP | 0.784 ± 0.0098
133 | PLPPPPRLRCSS | 0.649 ± 0.069
134 | PLPPPPTPPSLS | 0.716 ± 0.046
135 | PLPPPRFPPPRL | 0.68 ± 0.12
136 | PLPPPRPPPSPP | 0.603 ± 0.071
137 | PLPPPRSSPVSS | 0.658 ± 0.04
138 | PLPPRLPPPPPS | 0.72 ± 0.048

Row | Sequence | protein stability index
139 | PLPPSRLSPSPP | 0.7 ± 0.0036
140 | PLPPTPSLDPSS | 0.6992 ± 0.0033
141 | PLPPVVSFALSR | 0.661 ± 0.061
142 | PLPRPPPPANSP | 0.714 ± 0.063
143 | PLPRSPLHPSVP | 0.74 ± 0.03
144 | PLPSLPPSLAPW | 0.692 ± 0.078
145 | PLPSPASPSPPP | 0.67 ± 0.12
146 | PLPSPLLPRSVL | 0.705 ± 0.045
147 | PLPSPSLLLHCP | 0.592 ± 0.0013
148 | PLPTPHPHKPYQ | 0.771 ± 0.025
149 | PLPVRPGQHRIL | 0.6918 ± 0.0024
150 | PLRKGVHTHNNK | 0.632 ± 0.053
151 | PLRLLSTPSPLS | 0.755 ± 0.049
152 | PLRLPVPLPSPP | 0.6571 ± 0.0062
153 | PLRPGILLNKLP | 0.646 ± 0.046
154 | PLRPPPPPLAPP | 0.697 ± 0.035
155 | PLRPPPRPRQTH | 0.671 ± 0.056
156 | PLRPPPSPLSPR | 0.76 ± 0.055
157 | PLRPSVSALPPF | 0.683 ± 0.018
158 | PLRQRCIYDVPI | 0.7688 ± 0.0039
159 | PLRSLRFYTTLS | 0.649 ± 0.018
160 | PLRVATTLGYPL | 0.649 ± 0.081
